Source: patent publication US20240279345A1, “ALPHA 5 BETA 1 INTEGRIN BINDING AGENTS AND USES THEREOF” (PASITHEA THERAPEUTICS CORP., priority 2021, published 2024)
Changes are numbered by the printed parent chain. In names and notes the source's numbering stands.

Columns and labels:
[1] = target: T1, purified recombinant human α5β1 integrin heterodimer, 6×His tagged (rh-α5β1); Acro Biosystems, cat. no. … (human, UniProt P08648 42-995; P05556 21-728); experiment: ELISA, inhibition of rh-α5β1-His binding to coated FN, purified hybridoma mAb
T1 construct: bought recombinant heterodimer; also called rh-α5β1-6×His tagged protein; His-tagged-α5β1
Procedure: Immulon4 HBX ELISA 96-well plates were coated with FN by incubation overnight at 4° C. with 2.5 μg/mL human FN (R&D Systems, Minneapolis, MN 55413, cat. no. 1918-FN) in 1×PBS (0.01M phosphate buffer and 0.154M NaCl, pH 7.4). Plates were then washed 3 times with Wash Buffer (1× Tris Buffered Saline containing 0.05% Tween20), blocked with 2% BSA in 1×TBS for 2 hours at room temperature (RT). […] Isotype control antibody (Control Ab; Ms IgG2a EMD Millipore Corp, Billerica, MA, cat. no. PP102) was used to normalize data across different assay runs. […] Following 1 hour at RT, the wells were washed 3 times, incubated with biotinylated Anti-6×His-Tag Ab (Invitrogen, Carlsbad, CA, cat. no. MAI-21315-BTIN) at 1:1000 in Standard Diluent for 1 hour, washed 3 times, incubated for 30 minutes with poly-HRP Streptavidin (Thermo Fisher Scientific, Waltham, MA, cat. no. N200), washed 4 times, incubated with TMB substrate (Thermo Fisher Scientific, Waltham, MA, cat. no. N301) for 2-5 minutes, followed by addition of ELISA Stop Solution (Invitrogen, Carlsbad, CA, cat. no. SS04). Absorbance 450 nm was measured. Data points were normalized to the isotype Control Ab values at each concentration and reported as % Absorbance 450 nm normalized to Control Ab. Non-linear regression analysis was used to fit curves (4-parameter) to the data using GraphPad Prism version 9.0.2 (GraphPad Software, LLC, San Diego, CA).

[2] = target: T2, recombinant human α4β1 integrin (rh-α4β1; R&D Systems, cat. no. 5668-A4) (human, UniProt P13612 34-977; P05556 21-728); experiment: ELISA, coated rh-α4β1, supernatant 1:10
T2 construct: bought recombinant heterodimer
T2 sequence (P13612 34-977 limits assumed, form in doubt, chain 1 of 2): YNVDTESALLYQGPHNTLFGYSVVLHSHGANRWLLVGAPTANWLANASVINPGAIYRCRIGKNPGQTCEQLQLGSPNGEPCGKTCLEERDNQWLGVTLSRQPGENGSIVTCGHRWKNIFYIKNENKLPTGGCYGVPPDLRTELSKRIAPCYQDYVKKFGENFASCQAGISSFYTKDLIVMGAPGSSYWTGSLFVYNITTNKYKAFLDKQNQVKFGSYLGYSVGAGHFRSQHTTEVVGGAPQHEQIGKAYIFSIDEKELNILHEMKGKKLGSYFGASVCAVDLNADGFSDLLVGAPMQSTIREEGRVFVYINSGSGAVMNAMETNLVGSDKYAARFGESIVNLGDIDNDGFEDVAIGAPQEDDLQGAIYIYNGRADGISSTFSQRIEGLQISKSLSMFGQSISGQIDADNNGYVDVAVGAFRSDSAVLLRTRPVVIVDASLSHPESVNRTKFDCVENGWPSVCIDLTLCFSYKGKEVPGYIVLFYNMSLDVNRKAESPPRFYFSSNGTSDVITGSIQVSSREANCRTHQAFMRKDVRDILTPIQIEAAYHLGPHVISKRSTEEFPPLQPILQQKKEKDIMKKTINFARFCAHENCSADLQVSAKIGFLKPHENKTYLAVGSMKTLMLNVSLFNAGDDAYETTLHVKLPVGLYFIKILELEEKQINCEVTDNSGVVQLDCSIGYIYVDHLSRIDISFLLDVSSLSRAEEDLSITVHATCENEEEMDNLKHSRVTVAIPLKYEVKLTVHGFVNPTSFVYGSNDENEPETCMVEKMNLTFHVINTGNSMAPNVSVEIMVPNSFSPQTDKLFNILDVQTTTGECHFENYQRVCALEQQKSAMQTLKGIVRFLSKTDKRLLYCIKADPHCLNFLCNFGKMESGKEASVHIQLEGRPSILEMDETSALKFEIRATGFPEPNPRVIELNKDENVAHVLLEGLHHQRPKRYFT
T2 sequence (P05556 21-728 limits assumed, form in doubt, chain 2 of 2): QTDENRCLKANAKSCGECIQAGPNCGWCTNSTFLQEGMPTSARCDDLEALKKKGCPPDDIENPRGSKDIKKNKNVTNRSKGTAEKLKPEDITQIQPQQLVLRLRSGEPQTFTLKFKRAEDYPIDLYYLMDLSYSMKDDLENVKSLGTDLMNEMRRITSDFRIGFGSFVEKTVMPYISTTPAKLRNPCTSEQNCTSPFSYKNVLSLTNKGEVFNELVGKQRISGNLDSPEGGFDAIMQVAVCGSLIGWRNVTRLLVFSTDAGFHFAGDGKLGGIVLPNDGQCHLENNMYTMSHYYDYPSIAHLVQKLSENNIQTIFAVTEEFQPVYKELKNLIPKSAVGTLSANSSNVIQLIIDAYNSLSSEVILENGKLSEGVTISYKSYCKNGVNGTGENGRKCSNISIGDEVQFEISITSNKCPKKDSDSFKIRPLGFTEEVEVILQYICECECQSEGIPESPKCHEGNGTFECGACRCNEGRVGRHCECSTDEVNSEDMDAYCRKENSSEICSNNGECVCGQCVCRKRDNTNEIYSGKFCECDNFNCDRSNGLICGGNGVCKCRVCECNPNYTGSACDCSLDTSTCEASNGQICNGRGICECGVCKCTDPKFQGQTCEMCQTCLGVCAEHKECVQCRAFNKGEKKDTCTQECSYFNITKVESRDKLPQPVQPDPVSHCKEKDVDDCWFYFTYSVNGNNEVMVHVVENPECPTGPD

[3] = target: T1, purified recombinant human α5β1 …; experiment: BLI (Octet), supernatant mAb on anti-mouse IgG Fc sensor, 20 nM rh-α5β1
From the text: Anti-Mouse IgG Fc biosensors were used to load each clone supernatant. Assay steps were as follows: Sensor Check (30s)-->Load Ab (700s)-->Quench (480s)-->Baseline(480s)-->Ab Assoc. (600s)-->Dissoc. (600s).

[4] = target: T3, recombinant mouse α5β1 (rm-α5β1; R&D Systems, cat. no. 7728-A5) (mouse, UniProt P11688 45-999; P09055 21-728); experiment: ELISA, coated rm-α5β1, supernatant 1:10
T3 construct: bought recombinant heterodimer
T3 sequence (P11688 45-999 limits assumed, form in doubt, chain 1 of 2): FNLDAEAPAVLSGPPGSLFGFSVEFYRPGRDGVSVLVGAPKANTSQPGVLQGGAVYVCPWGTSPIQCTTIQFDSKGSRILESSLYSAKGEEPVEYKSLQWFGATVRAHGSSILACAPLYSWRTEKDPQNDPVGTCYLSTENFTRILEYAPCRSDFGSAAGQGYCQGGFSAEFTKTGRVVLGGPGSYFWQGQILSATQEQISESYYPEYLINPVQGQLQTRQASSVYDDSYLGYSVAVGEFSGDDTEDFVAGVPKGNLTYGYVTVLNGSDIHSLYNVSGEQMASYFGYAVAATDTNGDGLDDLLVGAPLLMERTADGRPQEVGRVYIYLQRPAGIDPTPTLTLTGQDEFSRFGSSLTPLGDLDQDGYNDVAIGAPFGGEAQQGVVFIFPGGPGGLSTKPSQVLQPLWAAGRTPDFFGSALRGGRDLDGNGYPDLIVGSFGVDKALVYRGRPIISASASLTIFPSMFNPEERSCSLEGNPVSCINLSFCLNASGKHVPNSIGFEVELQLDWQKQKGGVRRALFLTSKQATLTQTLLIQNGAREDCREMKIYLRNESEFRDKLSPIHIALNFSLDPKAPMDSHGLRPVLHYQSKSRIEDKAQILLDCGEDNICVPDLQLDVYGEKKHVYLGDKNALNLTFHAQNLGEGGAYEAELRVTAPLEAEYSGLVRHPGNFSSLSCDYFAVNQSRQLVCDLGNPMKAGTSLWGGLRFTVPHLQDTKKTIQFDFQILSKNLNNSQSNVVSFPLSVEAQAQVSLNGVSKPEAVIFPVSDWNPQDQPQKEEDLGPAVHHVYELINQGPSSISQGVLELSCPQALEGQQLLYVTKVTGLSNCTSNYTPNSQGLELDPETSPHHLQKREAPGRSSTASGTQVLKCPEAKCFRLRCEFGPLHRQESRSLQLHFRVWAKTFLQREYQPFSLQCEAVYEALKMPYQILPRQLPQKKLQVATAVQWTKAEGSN
T3 sequence (P09055 21-728 limits assumed, form in doubt, chain 2 of 2): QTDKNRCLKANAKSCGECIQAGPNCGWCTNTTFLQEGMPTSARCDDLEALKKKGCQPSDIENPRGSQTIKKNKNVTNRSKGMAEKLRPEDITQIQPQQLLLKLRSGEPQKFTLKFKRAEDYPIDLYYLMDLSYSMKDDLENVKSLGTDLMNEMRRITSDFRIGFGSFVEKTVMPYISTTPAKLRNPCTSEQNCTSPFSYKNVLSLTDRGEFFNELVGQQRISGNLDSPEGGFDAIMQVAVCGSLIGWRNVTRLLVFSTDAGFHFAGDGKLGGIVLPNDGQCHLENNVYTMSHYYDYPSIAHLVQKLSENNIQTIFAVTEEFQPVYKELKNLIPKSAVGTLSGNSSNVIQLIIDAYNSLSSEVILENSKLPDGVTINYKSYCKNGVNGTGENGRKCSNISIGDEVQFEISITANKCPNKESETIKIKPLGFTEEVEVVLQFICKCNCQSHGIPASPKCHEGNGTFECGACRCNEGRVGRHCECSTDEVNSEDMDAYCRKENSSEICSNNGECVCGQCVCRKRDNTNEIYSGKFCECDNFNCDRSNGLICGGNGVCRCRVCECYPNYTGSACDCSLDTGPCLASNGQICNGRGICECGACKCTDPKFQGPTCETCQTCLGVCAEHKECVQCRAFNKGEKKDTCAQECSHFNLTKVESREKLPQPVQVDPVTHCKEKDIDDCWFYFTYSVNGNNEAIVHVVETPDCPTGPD
Procedure: (§1) Plates were washed 3 times with Wash Buffer (1× Tris Buffered Saline containing 0.05% Tween20), blocked with 2% BSA in 1×TBS (made from 10× Thermo Scientific Blocker BSA (10×) in TBS; Thermo Fisher Scientific, Waltham, MA, cat. no. 37520) for 2 hours at room temperature (RT) then incubated with hybridoma supernatants diluted 1:10 with Standard Diluent (2% BSA, 1×TBS, 0.05% Tween20). […] Absorbance 450 nm was measured.

[5] = target: T4, recombinant human α5β1 integrin (rh-α5β1; R&D Systems, cat. no. 3230-A5) (human, UniProt P08648 42-995; P05556 21-728); experiment: ELISA, coated rh-α5β1, supernatant 1:10
T4 construct: bought recombinant heterodimer
Procedure: as §1

[6] = tested on: U87MG cell line; experiment: Plate-based cell adhesion assay of U87MG cells to FN; settings: antibody 3 to 0.01 μg/mL
Procedure: Cell surface α5β1 integrin receptors interact with FN to promote cellular adhesion. To test whether the human IgG4 chimeric anti-α5β1 antibodies inhibit adhesion, a plate-based cell adhesion assay was developed for use with the U87MG cell line (HTB-14™, ATCC, Manassas, VA) which is derived from a Glioblastoma tumor and is known to express α5β1 integrin. U87MG cells were grown to 80% confluence in EMEM media (ATCC, Manassas, VA, cat. no. 30-2003) supplemented with 10% Fetal Bovine Serum (FBS; ATCC, Manassas, VA, cat. no. 30-2021) in a 5% C02, 37° C. incubator. Cells were dissociated from flasks with 0.05% Trypsin, 0.02% EDTA (Lifeline Cell Technology, Frederick, MD, cat. no. CM0017), washed once with Dulbecco's 1×PBS (DPBS) Modified which contains calcium and magnesium (HyClone, Logan, UT, cat. no. SH30028-02) and resuspended in EMEM media without supplementation at a cellular concentration of 2,000,000 cells per mL. Cells were rested in the incubator for 30 minutes before mixing with a six point 1:3 dilution series of the antibodies with final concentrations ranging from 3 to 0.01 μg/mL in a 96-well polypropylene round-bottom plate. 100,000 rested cells were pre-mixed with each dilution of antibody to a final volume of 100 μL and then transferred to a Human FN coated 96-well plate (R&D Systems, Minneapolis, MN, cat. no. CWP001). The cell-antibody mixtures were incubated for 1 hour at 37° C., 5% C02. Non-adhered cells were removed from the wells by inversion of the plate on an absorbent pad, then washed 2× with 200 uL each well with 1×DPBS without Calcium and Magnesium (EMD Millipore Corp, Billerica, MA, cat. no. TMS-012-A). 100 μL 1× DPBS containing Hoechst 33342 dye (Thermo Fisher Scientific, Waltham, MA, cat. no. 62249) at the recommended dilution (1:2000) was added to each well to fluorescently stain nuclei to facilitate cell counting. Cells that remained adhered to the wells were counted using image analysis software provided by the ImageXpress Pico Automated Cell Imaging System (Molecular Devices, San Jose, CA) which is based on counting fluorescently stained nuclei, in this case using a DAPI filter to detect the Hoechst nuclear staining. Non-linear regression analysis was used to fit curves (4-parameter) to the data using GraphPad Prism version 9.0.2 (GraphPad Software, LLC, San Diego, CA).

[7] = target: α5β1 integrin on U87MG cells (human, UniProt P08648 42-1049; P05556 21-798); experiment: cell-based or functional assay
Sequence of α5β1 integrin on U87MG cells (P08648 42-1049 limits assumed, chain 1 of 2): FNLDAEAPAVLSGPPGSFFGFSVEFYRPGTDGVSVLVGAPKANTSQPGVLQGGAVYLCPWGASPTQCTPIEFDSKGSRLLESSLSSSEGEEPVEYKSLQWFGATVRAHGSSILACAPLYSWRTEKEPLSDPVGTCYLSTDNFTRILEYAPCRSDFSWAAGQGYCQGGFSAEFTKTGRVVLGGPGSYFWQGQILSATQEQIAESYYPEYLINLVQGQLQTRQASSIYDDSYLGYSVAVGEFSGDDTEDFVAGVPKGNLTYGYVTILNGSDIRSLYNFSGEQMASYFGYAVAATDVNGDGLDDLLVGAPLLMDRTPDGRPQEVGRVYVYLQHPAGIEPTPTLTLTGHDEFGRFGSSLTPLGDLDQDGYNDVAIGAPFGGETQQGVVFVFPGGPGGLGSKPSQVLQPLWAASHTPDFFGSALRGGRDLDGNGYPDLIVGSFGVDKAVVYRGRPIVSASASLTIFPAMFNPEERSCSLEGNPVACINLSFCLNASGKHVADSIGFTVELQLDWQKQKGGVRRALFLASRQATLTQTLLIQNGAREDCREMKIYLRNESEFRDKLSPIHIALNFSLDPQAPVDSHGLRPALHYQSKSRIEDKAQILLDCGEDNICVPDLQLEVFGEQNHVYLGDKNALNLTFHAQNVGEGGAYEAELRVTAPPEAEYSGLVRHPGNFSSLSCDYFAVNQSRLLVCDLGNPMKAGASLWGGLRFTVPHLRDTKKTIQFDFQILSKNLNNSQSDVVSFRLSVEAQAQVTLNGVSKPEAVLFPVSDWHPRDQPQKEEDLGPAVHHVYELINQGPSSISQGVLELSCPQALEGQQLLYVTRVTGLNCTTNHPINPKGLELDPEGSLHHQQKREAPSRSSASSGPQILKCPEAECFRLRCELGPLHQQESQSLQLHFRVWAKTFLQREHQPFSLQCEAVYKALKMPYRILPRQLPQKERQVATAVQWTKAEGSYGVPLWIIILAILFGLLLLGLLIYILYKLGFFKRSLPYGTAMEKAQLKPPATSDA
Sequence of α5β1 integrin on U87MG cells (P05556 21-798 limits assumed, chain 2 of 2): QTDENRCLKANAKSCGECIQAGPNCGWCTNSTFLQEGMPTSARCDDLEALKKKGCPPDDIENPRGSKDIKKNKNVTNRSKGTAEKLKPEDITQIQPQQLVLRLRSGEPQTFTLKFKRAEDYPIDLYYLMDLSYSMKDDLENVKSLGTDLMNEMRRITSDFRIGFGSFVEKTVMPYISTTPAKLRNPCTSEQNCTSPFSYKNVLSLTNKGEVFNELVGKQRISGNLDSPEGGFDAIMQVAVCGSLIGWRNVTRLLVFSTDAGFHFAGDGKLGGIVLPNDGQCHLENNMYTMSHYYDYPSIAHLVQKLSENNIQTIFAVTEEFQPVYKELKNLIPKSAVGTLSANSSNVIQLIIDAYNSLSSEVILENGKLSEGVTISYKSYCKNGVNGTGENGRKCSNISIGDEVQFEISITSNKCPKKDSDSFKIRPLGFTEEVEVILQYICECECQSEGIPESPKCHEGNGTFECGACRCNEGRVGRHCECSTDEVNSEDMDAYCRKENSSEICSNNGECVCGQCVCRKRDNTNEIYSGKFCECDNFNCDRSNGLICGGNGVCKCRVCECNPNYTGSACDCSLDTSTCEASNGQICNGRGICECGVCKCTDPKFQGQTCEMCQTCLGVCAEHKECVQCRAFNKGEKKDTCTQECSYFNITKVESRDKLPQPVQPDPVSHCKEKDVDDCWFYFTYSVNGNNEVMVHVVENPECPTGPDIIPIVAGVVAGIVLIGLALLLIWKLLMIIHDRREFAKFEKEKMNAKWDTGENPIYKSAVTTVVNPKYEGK

B1: A2-5D10 (antibody, V domains shown)
VH: QVQLKESGPGLVAPSQSLSITCTISGFSLTSYGVHWVRQPPGKGLEWLVVIWSDGSTTYNSTLKSRLSISKDNSKSQVFLKMNSLQTDDTAMYYCARHYDYDGDWFAYWGQGTLVTVSA
VL: QILLTQSPAIMSASLGERVTMTCTASSSVSSRCLHWYQQKPGSSPKLWIYSTSNLASGVPARFRGSGSGTSYSLTISSMEAEDAATYYCHQYYRSPPTFGGGTKLEIK
notes: mouse hybridoma antibody
B1 was tested, and the “% Max Inhibition” value [1] was 93%, the “Absorbance 450 nm” value [2] was 0.0683 and the Kd [3] was 2.32 nM. The koff [3] was 0.00161 s⁻¹, the kon [3] was 693000 M⁻¹ s⁻¹ and the “Absorbance 450 nm” value [4] was 0.0647. For the same molecule, the “Absorbance 450 nm” value [5] was 2.31.

B2: A-15B08 IgG4 Chimera (antibody, V domains shown)
VH: B1 VH with L80F
VL: B1 VL with L3V, S28R, R32N, C33S, R64S, Y93L
B2 gave an IC50 [6] of 0.12 µg/mL.

B3: C-14D12 IgG4 Chimera (antibody, V domains shown)
VH: QVQLKESGPDLVAPSQSLSITCTVSGFSLTDYGVHWVRQPPGKGLEWLVVIWSDGSTTYNSALKSRLSITKDTSKRQVFLKMNSLQTDDTAMYYCARHAPSFIRYGSRYDALDYWGQGTSVTVSS
VL: B1 VL with L3V, M21L, S30T, R32S, C33F, R64S, Y93H
B3 was tested, and the IC50 [6] was 0.14 µg/mL.

B4: A-15B08-T62A IgG4 Chimera (antibody, V domains shown)
VH: B1 VH with T62A, L80F
VL: B1 VL with L3V, S28R, R32N, C33S, R64S, Y93L
With B4 the IC50 [6] was 0.15 µg/mL, the “% Inhibition” value [7] was 82% and the “Cell Counts (Curve Bottom)” value [7] was 6320 cells. The “Cell Counts (Curve Top)” value [7] was 35400 cells.

B5: A2-7A05 IgG4 Chimera (antibody, V domains shown)
VH: QVQLQQPGAELVKPGASVKLSCKASGYTFTIYWINWVKQRPGQGLEWIGKIYPGSISTDYNEKFKSKATLTVDTSSSTAYMQLSSLTSDDSAVYYCAITGTGGLAYWGQGTLVTVSA
VL: ENVLTQSPAIMSASLGEKVTMTCRASSSVNYMYWYQQKSDASPKLWIYFTSSLAPGVPGRFSGSGSGNSYSLTISTMEGEDAATYYCQQFTTSPFTFGSGTKLEIK
B5 was tested, and the IC50 [6] was 0.27 µg/mL, the “% Inhibition” value [7] was 25% and the “Cell Counts (Curve Bottom)” value [7] was 28800 cells. For the same molecule, the “Cell Counts (Curve Top)” value [7] was 38200 cells.

B6: A2-7A05 (antibody, V domains shown)
VH: B5 VH
VL: B5 VL
notes: mouse hybridoma antibody; also called A2-7A05 (hybridoma)
In the case of B6, the “% Max Inhibition” value [1] is reported as 41%, the “Absorbance 450 nm” value [2] is reported as 0.0713 and the Kd [3] is reported as 0.8 nM. The koff [3] was 0.000178 s⁻¹, the kon [3] was 222000 M⁻¹ s⁻¹ and the “Absorbance 450 nm” value [4] was 0.0682. The “Absorbance 450 nm” value [5] was 2.05.

B7: A2-7F01 (antibody, V domains shown)
VH: B5 VH with K50N, I56S, D59N, S66T, L104F
VL: B5 VL with T22S, G59T, Y70F, T76S, F90L, T92G, K102R
notes: mouse hybridoma antibody
With B7 the “% Max Inhibition” value [1] was 60%, the “Absorbance 450 nm” value [2] was 0.0617 and the Kd [3] was 1.3 nM. The koff [3] was 0.000314 s⁻¹, the kon [3] was 242000 M⁻¹ s⁻¹ and the “Absorbance 450 nm” value [4] was 0.0563. The “Absorbance 450 nm” value [5] was 2.03.
